Experimental data: paper PMC4316159

Columns and labels:
[1] = biological target: biotinylated maltose-binding protein (MBP) [MBP: P0AEX9]; assay: SPR
[2] = biological target: CD44 trans-membrane domain (TMD) fused to maltose-binding protein [MBP: P0AEX9]; assay: single-molecule force spectroscopy

- Kd [1]: 101 nM
- koff [1]: 0.0387 s⁻¹
- kon [1]: 360000 M⁻¹ s⁻¹
- decrease of rupture force against YS1 [2]: 10 to 15 pN
- unstressed off-rate k0off (Bell model) [2]: 0.00076 s⁻¹
Substance: monobody YS1(E47A) (designed binder)
